The values below come from article PMC8993412 (Journal of Molecular Biology, 2022).

Assay [1] addresses Nsp1 in SARS-CoV-2-infected VeroE6 cells (SARS-CoV-2 USA-WA1/2020, UniProt P0DTD1). Briefly: immunostaining of cells or tissue.
The target in assay [2] is SARS-CoV-2 Nsp1, full-length protein (recombinant) (SARS-CoV-2, reference, UniProt P0DTD1). Description: ELISA.
In assay [3] the target is SARS-CoV-2 Nsp12 (recombinant) (SARS-CoV-2, reference, UniProt P0DTD1). Description: western blot. Background: Immunoblotting shows a protein as a band on a membrane.
Assay [4] concerns the target Nsp12 in SARS-CoV-2-infected VeroE6 cells (SARS-CoV-2 USA-WA1/2020, UniProt P0DTD1). Briefly: immunostaining of cells or tissue.

B1: IgG 15497 (anti-Nsp1) (antibody, V domains shown)
VH: EVQLVESGGGLVQPGGSLRLSCAASGFNFSSSSIHWVRQAPGKGLEWVASISSSYGYTYYADSVKGRFTISADTSKNTAYLQMNSLRAEDTAVYYCARWAAMDYWGQGTLVTVSS
VL: DIQMTQSPSSLSASVGDRVTITCRASQSVSSAVAWYQQKPGKAPKLLIYSASSLYSGVPSRFSGSRSGTDFTLTISSLQPEDFATYYCQQYYSLITFGQGTKVEIK
B1: the binding result in assay [1] was “binds”.

B2: Fab 15497 (Fab-phage clone) (Fab, V domains shown)
VH: EVQLVESGGGLVQPGGSLRLSCAASGFNFSSSSIHWVRQAPGKGLEWVASISSSYGYTYYADSVKGRFTISADTSKNTAYLQMNSLRAEDTAVYYCARWAAMDYWGQGTLVTVSS
VL: DIQMTQSPSSLSASVGDRVTITCRASQSVSSAVAWYQQKPGKAPKLLIYSASSLYSGVPSRFSGSRSGTDFTLTISSLQPEDFATYYCQQYYSLITFGQGTKVEIK
With B2, the binding result in assay [2] is “binds”.

B3: Fab 15498 (Fab-phage clone) (Fab, V domains shown)
VH: EVQLVESGGGLVQPGGSLRLSCAASGFNISSSSMHWVRQAPGKGLEWVAAVASFYGATYYADSVKGRFTISADTSKNTAYLQMNSLRAEDTAVYYCARAYHAGLDYWGQGTLVTVSS
VL: DIQMTQSPSSLSASVGDRVTITCRASQSVSSAVAWYQQKPGKAPKLLIYSASSLYSGVPSRFSGSRSGTDFTLTISSLQPEDFATYYCQQWYYYSAAVTFGQGTKVEIK
In the case of B3, the binding result in assay [2] is “binds”.

B4: IgG 15884 (anti-Nsp12) (antibody, V domains shown)
VH: EVQLVESGGGLVQPGGSLRLSCAASGFNIYYYSMHWVRQAPGKGLEWVASIYSYYGYTSYADSVKGRFTISADTSKNTAYLQMNSLRAEDTAVYYCARHPAYGGMDYWGQGTLVTVSS
VL: DIQMTQSPSSLSASVGDRVTITCRASQSVSSAVAWYQQKPGKAPKLLIYSASSLYSGVPSRFSGSRSGTDFTLTISSLQPEDFATYYCQQSHWHPITFGQGTKVEIK
Regarding B4, the binding result in assay [3] and in assay [4] was “binds” each time.
